Article PMC4615642 (RNA Biology, 2015)

Tests used:
[1] = biological target: T1, Myo4p-C (C-terminal cargo-binding region of Myo4p, amino acids 923-1471, His6 fusion) (S. cerevisiae, UniProt P32492 923-1471); experiment: SEC-MALS
T1 sequence (looked up): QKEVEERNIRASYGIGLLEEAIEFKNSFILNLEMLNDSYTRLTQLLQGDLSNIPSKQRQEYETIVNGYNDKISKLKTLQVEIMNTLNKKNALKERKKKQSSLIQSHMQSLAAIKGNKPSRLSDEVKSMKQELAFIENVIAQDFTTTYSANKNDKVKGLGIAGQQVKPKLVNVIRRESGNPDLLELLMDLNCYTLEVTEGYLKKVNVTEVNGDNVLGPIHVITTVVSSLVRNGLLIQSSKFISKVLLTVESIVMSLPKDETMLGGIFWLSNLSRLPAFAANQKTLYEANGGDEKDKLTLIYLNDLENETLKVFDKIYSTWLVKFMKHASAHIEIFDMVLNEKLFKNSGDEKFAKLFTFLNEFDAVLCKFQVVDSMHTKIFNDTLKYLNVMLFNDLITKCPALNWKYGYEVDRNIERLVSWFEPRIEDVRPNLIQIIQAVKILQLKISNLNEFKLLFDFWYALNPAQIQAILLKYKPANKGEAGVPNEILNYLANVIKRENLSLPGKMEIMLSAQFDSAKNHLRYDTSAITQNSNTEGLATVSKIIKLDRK

[2] = biological target: the molecule itself; experiment: SEC-MALS

B1: She3p-His6 (full-length She3p) (natural protein, S. cerevisiae, UniProt P38272 1-425, looked up)
chain: MSDQDNTQTSSSKLAPHHNIFMANLESSPTKDRNTSSQNASSSRVIESLHDQIDMLTKTNLQLTTQSQNLLSKLELAQSKESKLLENLNLLKNENENLNSIFERKNKKLKELEKDYSELSNRYNEQKEKMDQLSKLAKNSSAIEQSCSEKLQNMEVNYNSLLESQNLYRDHYSDEISKLNEKIGLLELELSNQNLNYGSDTSSNSDIELNLNKFNDSVKDLKSLETEKDSKLSKIITHSLDELNLQSWLNLYQTNENLISTFAEKMDLKDVLKRNDEKISNKGAVVQTLKKNVQTQVESNNADALSSNNAQDMLPIKMVKLRKTPNTNDSSSNGNSSNNKRRSFYTASPLLSSGSIPKSASPVLPGVKRTASVRKPSSSSSKTNVTHNNDPSTSPTISVPPGVTRTVSSTHKKKGNSMVVHGAQS
- stoichiometry N [1]: 2 She3p per Myo4p
- stoichiometry N [2]: 2
